Results taken from the supplement of paper PMC10724198.
± gives the standard deviation of the averaged measurements.

Tested on: Saccharomyces cerevisiae
Test: protein stability index of tFT-peptide fusion (C-terminal peptide) (PSI (0-1 scale)); higher = more stable (slower turnover)
Details: genetic background: wild type; temperature: 30 C
Method: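 Multiplexed protein stability (MPS) profiling in S. cerevisiae. Random 12-aa peptides (tFT-X12 library) are fused to the C-terminus of a sfGFP-mCherry tandem fluorescent timer, after mCherry and a GGGS linker. Cells are FACS-sorted into 8 mCherry/sfGFP bins and deep-sequenced. The protein stability index (PSI) is the read-weighted bin average, scaled from 0 (unstable) to 1 (stable). Only peptides with >10 reads are reported; cells were grown at 30 °C in SC-His with glucose.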
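Further: PSI is a weighted mean of sequencing reads over stability bins, variants kept only with over 10 reads, mCherry proximal and sfGFP distal, peptide attached via GGGS linker.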

Sequence | protein stability index
GFTCGCSSMKNF | 0.718 ± 0.021
GFVPRSFNTLTS | 0.664 ± 0.053
GFVPWVCGVRMS | 0.689 ± 0.051
GFWESLGGVGAE | 0.697 ± 0.049
GGAAAWAERCGG | 0.726 ± 0.0097
GGACGRRSEDCQ | 0.633 ± 0.087
GGAEEGRANCWN | 0.722 ± 0.1
GGAFPGPGFGLD | 0.68 ± 0.017
GGAPMRPGGGTC | 0.678 ± 0.065
GGASRLARMGWW | 0.642 ± 0.034
GGAVGYRLVACD | 0.656 ± 0.11
GGAVSRVGEWGR | 0.7881 ± 0.0073
GGCGSAGRGQRG | 0.697 ± 0.062
GGCGWRGDGGGA | 0.679 ± 0.13
GGCSRYVLILFD | 0.686 ± 0.15
GGDCGERRGNEV | 0.65 ± 0.05
GGEGWGAFWGGE | 0.713 ± 0.05
GGELGGTGVGGG | 0.6881 ± 0.0016
GGFKGGKWVVEG | 0.606 ± 0.021
GGFRREPWEILR | 0.649 ± 0.0012
GGFSLTGSLCID | 0.687 ± 0.035
GGGAAGILWGLG | 0.694 ± 0.013
GGGAGGVVGGIS | 0.694 ± 0.027
GGGAGLVGGCVA | 0.735 ± 0.019
GGGARQAGGDNI | 0.666 ± 0.045

Sequence | protein stability index
GGGCGGACRPVG | 0.692 ± 0.14
GGGCGGGGSSCA | 0.654 ± 0.069
GGGCGGGQAGCQ | 0.691 ± 0.043
GGGCGMEPGCGP | 0.687 ± 0.062
GGGFRVLCVGLG | 0.627 ± 0.037
GGGGEDQSQGPP | 0.69 ± 0.027
GGGGFGFGWSMV | 0.709 ± 0.059
GGGGGECCFLEG | 0.753 ± 0.081
GGGGGGGSRTGA | 0.691 ± 0.037
GGGGGGPSGGSG | 0.701 ± 0.079
GGGGGGVDWFEI | 0.71359 ± 2.1e-05
GGGGGISGGRWG | 0.667 ± 0.075
GGGGGLRVSCGT | 0.679 ± 0.083
GGGGGVWGVGRV | 0.66 ± 0.047
GGGGRWGVLVLG | 0.504 ± 0.0062
GGGGVACAGCTV | 0.637 ± 0.056
GGGGWGGAGLVG | 0.704 ± 0.014
GGGMRLVKRACY | 0.64 ± 0.031
GGGNRGTGCDWG | 0.628 ± 0.013
GGGPGRGVWVRV | 0.705 ± 0.021
GGGRCSGDGDRG | 0.708 ± 0.063
GGGREGNGRERS | 0.594 ± 0.053
GGGRWWRVGVGF | 0.729 ± 0.021
GGGVDSGWGKGE | 0.688 ± 0.024
GGGVGVPDSASE | 0.681 ± 0.047

Sequence | protein stability index
GGKKRGVRMCGG | 0.655 ± 0.013
GGLGGWAECGRW | 0.748 ± 0.11
GGLLGRLWDGGA | 0.723 ± 0.04
GGLREPIYQLWV | 0.648 ± 0.076
GGMAFSRPSFNG | 0.729 ± 0.032
GGMMRGHRHRCW | 0.812 ± 0.0095
GGPPTQAKPSPR | 0.647 ± 0.012
GGPSLTRCAAFG | 0.677 ± 0.063
GGQGFWRLWCLG | 0.686 ± 0.05
GGQRPKRQQLTT | 0.7022 ± 0.0058
GGREVGQVLWDD | 0.667 ± 0.024
GGREWRGGQGEV | 0.669 ± 0.12
GGRGGRSGTEGE | 0.6763 ± 0.0011
GGRGPRGAANRG | 0.634 ± 0.066
GGRRKKRVTPGE | 0.656 ± 0.0097
GGRRRAWLGGRW | 0.746 ± 0.012
GGRVAGSMGVGG | 0.68 ± 0.02
GGRWGGVSLGGR | 0.693 ± 0.11
GGSESRGSDRWE | 0.633 ± 0.038
GGSGQGAGAVWG | 0.63 ± 0.076
GGSNEKARGTGR | 0.6544 ± 0.00083
GGSVGGGTGWRM | 0.65 ± 0.022
GGVGGASMSGTP | 0.674 ± 0.037
GGVGVGVGCGGR | 0.6828 ± 0.0017
GGVRGERSDLRT | 0.712 ± 0.028

Sequence | protein stability index
GGVVLTWVGENC | 0.704 ± 0.061
GGWEGLRGLGVG | 0.634 ± 0.031
GGWGGAGQWADG | 0.706 ± 0.011
GGWGGKLVGRMG | 0.708 ± 0.0083
GGWGVGVWGVGG | 0.753 ± 0.08
GGWKINYVEENR | 0.663 ± 0.011
GGWTFGSPPYEI | 0.693 ± 0.015
GGYSNRNVEVIV | 0.6323 ± 0.003
GHKVTKDAIRIR | 0.6545 ± 0.0047
GHRMMWLFGVPA | 0.59 ± 0.035
GHSNVTSQIRRG | 0.643 ± 0.017
GHVRVVVRRRVI | 0.5812 ± 0.0021
GHWTRRPSVKGK | 0.643 ± 0.0092
GICIVGGCGCVG | 0.612 ± 0.068
GINFEIKFKRYN | 0.764 ± 0.055
GIRRSLALSAIS | 0.555 ± 0.017
GISKHGAITSRI | 0.725 ± 0.0033
GIVDCTKVIGLP | 0.722 ± 0.028
GKARLATGESAL | 0.674 ± 0.031
GKCKRYENISKR | 0.629 ± 0.0095
GKCLEGCCLVWG | 0.686 ± 0.008
GKEGGKAGKISE | 0.667 ± 0.028
GKEKRKEGERRK | 0.697 ± 0.12
GKPTPRRPEKDG | 0.6096 ± 0.0051
GKRKGETGNRGG | 0.741 ± 0.19

Sequence | protein stability index
GKRKKRRKRRRT | 0.664 ± 0.043
GKRRKKDGNKKR | 0.621 ± 0.066
GKSTFWTELAII | 0.648 ± 0.045
GKYIPHGNPSMA | 0.685 ± 0.051
GLAIRRDWLGWV | 0.745 ± 0.056
GLCGGFGGLRGL | 0.743 ± 0.031
GLCLFPAFSFPF | 0.671 ± 0.089
GLCVFVNKPSIL | 0.711 ± 0.011
GLCVGVGLVWKL | 0.65 ± 0.07
GLDEGCRVGEEV | 0.643 ± 0.013
GLFDLLCHCCWL | 0.702 ± 0.05
GLFNIDLFRFVR | 0.732 ± 0.041
GLFPGSRLRLVE | 0.666 ± 0.011
GLFVDIRLHRRT | 0.71 ± 0.017
GLGGGRCFWGVG | 0.686 ± 0.061
GLGGGVGGGLVV | 0.7045 ± 0.0046
GLGGSKKGEQRL | 0.674 ± 0.012
GLGLVSWEAGGV | 0.68 ± 0.025
GLGTRLSAVVLS | 0.625 ± 0.039
GLGWPPGEARRV | 0.621 ± 0.047
GLIATWMYKFVF | 0.617 ± 0.038
GLLAIVLYEYTG | 0.537 ± 0.0083
GLLARESLSFRH | 0.675 ± 0.026
GLLGVGDFRTEF | 0.638 ± 0.048
GLMTISFPSFFR | 0.704 ± 0.068

Sequence | protein stability index
GLMYDGVGCGGD | 0.671 ± 0.012
GLNGGRLEGERR | 0.731 ± 0.11
GLNLDLSGRLAF | 0.703 ± 0.032
GLQFYPFLSVVR | 0.617 ± 0.013
GLQIERAVGIRH | 0.708 ± 0.028
GLRLGRVWVGGW | 0.6647 ± 0.0026
GLRRSTRSRLVF | 0.593 ± 0.12
GLRRTGRISGSV | 0.7 ± 0.0076
GLRSKLEKVQRG | 0.726 ± 0.047
GLSCESLRLFFR | 0.702 ± 0.015
GLSFSAALFSAF | 0.673 ± 0.05
GLSHPPNFLPSG | 0.6505 ± 0.00088
GLSIVGAALHSA | 0.663 ± 0.025
GLSSGLWAFWWP | 0.749 ± 0.049
GLTCKSTASCKV | 0.693 ± 0.01
GLVCRKGSMGVR | 0.671 ± 0.057
GLVFSFSACPVL | 0.653 ± 0.066
GLVGCLFFCCIG | 0.558 ± 0.013
GLVGLSLSSCGR | 0.653 ± 0.088
GLVLPGHLTLAS | 0.628 ± 0.08
GLVRGRLVGLED | 0.646 ± 0.056
